T1: CD79 (UniProt P11912 33-143; P40259 29-159, limits assumed)
T1 construct: also called CD79 antigen; soluble biotinylated CD79 antigen
T1 sequence (looked up) 1: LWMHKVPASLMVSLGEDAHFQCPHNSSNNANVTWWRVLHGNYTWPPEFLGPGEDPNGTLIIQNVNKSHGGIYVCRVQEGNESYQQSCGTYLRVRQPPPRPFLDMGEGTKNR
T1 sequence (looked up) 2: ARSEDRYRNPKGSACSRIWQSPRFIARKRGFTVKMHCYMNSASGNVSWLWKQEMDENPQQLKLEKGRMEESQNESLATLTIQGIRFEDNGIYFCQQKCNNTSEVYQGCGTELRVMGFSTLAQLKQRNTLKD


Molecular target: T1, CD79
Assay: binding kinetics to CD79; method not named (antibody is the 'Loading Sample')

Binder	Kd [nM]	koff [s⁻¹]	kon [M⁻¹ s⁻¹]
humanized anti-CD79 antibody H1L1 (antibody, V domains shown) VH: QVQLVQSGAEVKKPGASVKVSCKASGYAFSYSWMNWVRQAPGQGLEWMGRIYPENGDTNYNGKFKGRVTMTRDTSISTAYMELSRLRSDDTAVYYCARWVYGYPHFDYWGQGTLVTVSS VL: DVVMTQSPLSLPVTLGQPASISCKSSQSLLDSDGKTYLNWFQQRPGQSPRRLIYLVSKLDSGVPDRFSGSGSGTDFTLKISRVEAEDVGVYYCWQGTHFPFTFGGGTKVEIK	59	0.0054	92000
humanized anti-CD79 antibody H1L3 (antibody, V domains shown) VH: QVQLVQSGAEVKKPGASVKVSCKASGYAFSYSWMNWVRQAPGQGLEWMGRIYPENGDTNYNGKFKGRVTMTRDTSISTAYMELSRLRSDDTAVYYCARWVYGYPHFDYWGQGTLVTVSS VL: DVVMTQSPLSLPVTLGQPASISCKSSQSLLDSDGKTYLNWLQQRPGQSPKRLIYLVSKLDSGVPDRFSGSGSGTDFTLKISRVEAEDVGVYYCWQGTHFPFTFGGGTKVEIK	49	0.004	82000
humanized anti-CD79 antibody H2L3 (antibody, V domains shown) VH: QVQLVQSGAEVKKPGASVKVSCKASGYAFSYSWMNWVRQAPGQGLEWMGRIYPENGDTNYNGKFKGRVTMTADTSISTAYMELSRLRSDDTAVYYCARWVYGYPHFDYWGQGTLVTVSS VL: DVVMTQSPLSLPVTLGQPASISCKSSQSLLDSDGKTYLNWLQQRPGQSPKRLIYLVSKLDSGVPDRFSGSGSGTDFTLKISRVEAEDVGVYYCWQGTHFPFTFGGGTKVEIK	61	0.0051	84000
humanized anti-CD79 antibody H3L3 (antibody, V domains shown) VH: QVQLVQSGAEVKKPGASVKVSCKASGYAFSYSWMNWVRQAPGQGLEWIGRIYPENGDTNYNGKFKGRVTLTADKSISTAYMELSRLRSDDTAVYYCARWVYGYPHFDYWGQGTLVTVSS VL: DVVMTQSPLSLPVTLGQPASISCKSSQSLLDSDGKTYLNWLQQRPGQSPKRLIYLVSKLDSGVPDRFSGSGSGTDFTLKISRVEAEDVGVYYCWQGTHFPFTFGGGTKVEIK	130	0.011	79000
humanized anti-CD79 antibody H2L2 (antibody, V domains shown) VH: QVQLVQSGAEVKKPGASVKVSCKASGYAFSYSWMNWVRQAPGQGLEWMGRIYPENGDTNYNGKFKGRVTMTADTSISTAYMELSRLRSDDTAVYYCARWVYGYPHFDYWGQGTLVTVSS VL: DVVMTQSPLSLPVTLGQPASISCKSSQSLLDSDGKTYLNWLQQRPGQSPRRLIYLVSKLDSGVPDRFSGSGSGTDFTLKISRVEAEDVGVYYCWQGTHFPFTFGGGTKVEIK	46	0.0046	100000
humanized anti-CD79 antibody H3L2 (antibody, V domains shown) VH: QVQLVQSGAEVKKPGASVKVSCKASGYAFSYSWMNWVRQAPGQGLEWIGRIYPENGDTNYNGKFKGRVTLTADKSISTAYMELSRLRSDDTAVYYCARWVYGYPHFDYWGQGTLVTVSS VL: DVVMTQSPLSLPVTLGQPASISCKSSQSLLDSDGKTYLNWLQQRPGQSPRRLIYLVSKLDSGVPDRFSGSGSGTDFTLKISRVEAEDVGVYYCWQGTHFPFTFGGGTKVEIK	140	0.0086	61000
humanized anti-CD79 antibody H3L1 (antibody, V domains shown) VH: QVQLVQSGAEVKKPGASVKVSCKASGYAFSYSWMNWVRQAPGQGLEWIGRIYPENGDTNYNGKFKGRVTLTADKSISTAYMELSRLRSDDTAVYYCARWVYGYPHFDYWGQGTLVTVSS VL: DVVMTQSPLSLPVTLGQPASISCKSSQSLLDSDGKTYLNWFQQRPGQSPRRLIYLVSKLDSGVPDRFSGSGSGTDFTLKISRVEAEDVGVYYCWQGTHFPFTFGGGTKVEIK	290	0.013	43000
humanized anti-CD79 antibody H2L1 (antibody, V domains shown) VH: QVQLVQSGAEVKKPGASVKVSCKASGYAFSYSWMNWVRQAPGQGLEWMGRIYPENGDTNYNGKFKGRVTMTADTSISTAYMELSRLRSDDTAVYYCARWVYGYPHFDYWGQGTLVTVSS VL: DVVMTQSPLSLPVTLGQPASISCKSSQSLLDSDGKTYLNWFQQRPGQSPRRLIYLVSKLDSGVPDRFSGSGSGTDFTLKISRVEAEDVGVYYCWQGTHFPFTFGGGTKVEIK	90	0.0071	79000
chimeric anti-CD79 antibody HcLc (antibody, V domains shown, Mouse VH fused to human IgG2 CH1, CH2 and CH3 domains; mouse VL fused to a human kappa CL domain) VH: QVQLQQSGPELVKPGASVKISCKASGYAFSYSWMNWVKQRPGKGLEWIGRIYPENGDTNYNGKFKGKVTLTADKSSSTAYMQLSSLTSEDSAVYFCARWVYGYPHFDYWGQGTTLTVSS VL: not shown	60	0.0056	93000

Molecular target: T1, CD79
Assay: antigen binding kinetics; method not named (antibody is the 'Loading Sample')

Binder	Kd [nM]	koff [s⁻¹]	kon [M⁻¹ s⁻¹]
engineered anti-CD79 antibody LB631/519 (antibody, V domains shown, Second NG motif of VH CDR2 engineered to NA; Produced in 293 cells by transient transfection; also called LB631/LB519) VH: QVQLVQSGAEVKKPGASVKVSCKASGYAFSYSWMNWVRQAPGQGLEWMGRIYPENGDTNYAGKFKGRVTMTRDTSISTAYMELSRLRSDDTAVYYCARWVYGLPHFDYWGQGTLVTVSS VL: DVVMTQSPLSLPVTLGQPASISCKSSQSLLDSDGKTYLNWLQQRPGQSPRRLIYLVSKLDSGVPDRFSGSGSGTDFTLKISRVEAEDVGVYYCWQGTHLPFTFGGGTKVEIK	1.04	6.1e-05	58600
engineered anti-CD79 antibody LB630/519 (antibody, V domains shown, First NG motif of VH CDR2 engineered to NS; Produced in 293 cells by transient transfection; also called LB630/LB519) VH: QVQLVQSGAEVKKPGASVKVSCKASGYAFSYSWMNWVRQAPGQGLEWMGRIYPESGDTNYNGKFKGRVTMTRDTSISTAYMELSRLRSDDTAVYYCARWVYGLPHFDYWGQGTLVTVSS VL: DVVMTQSPLSLPVTLGQPASISCKSSQSLLDSDGKTYLNWLQQRPGQSPRRLIYLVSKLDSGVPDRFSGSGSGTDFTLKISRVEAEDVGVYYCWQGTHLPFTFGGGTKVEIK	< 0.001	< 1e-07	55800

Molecular target: T1, CD79
Assay: binding kinetics of full length IgG to CD79; method not named (antibody is the 'Loading Sample')

Binder	Kd [nM]	koff [s⁻¹]	kon [M⁻¹ s⁻¹]
affinity matured anti-CD79 antibody LB495/518 (antibody, V domains shown, Full length IgG produced from 293 cells; also called LB495/LB518) VH: QVQLVQSGAEVKKPGASVKVSCKASGYAFSYSWMNWVRQAPGQGLEWMGRIYPENGDTNYNGKFKGRVTMTRDTSISTAYMELSRLRSDDTAVYYCARWVYGYPHFDYWGQGTLVTVSS VL: DVVMTQSPLSLPVTLGQPASISCKSSQSLLDSDGKTYLNWLQQRPGQSPRRLIYLVSKLDSGVPDRFSGSGSGTDFTLKISRVEAEDVGVYYCWQGTHIPFTFGGGTKVEIK	3.64	0.000332	91200
affinity matured anti-CD79 antibody LB495/520 (antibody, V domains shown, Full length IgG produced from 293 cells; also called LB495/LB520) VH: QVQLVQSGAEVKKPGASVKVSCKASGYAFSYSWMNWVRQAPGQGLEWMGRIYPENGDTNYNGKFKGRVTMTRDTSISTAYMELSRLRSDDTAVYYCARWVYGYPHFDYWGQGTLVTVSS VL: DVVMTQSPLSLPVTLGQPASISCKSSQSLLDSDGKTYLNWLQQRPGQSPRRLIYLVSKLDSGVPDRFSGSGSGTDFTLKISRVEAEDVGVYYCWQGTHRPFTFGGGTKVEIK	3.76	0.000374	99600
affinity matured anti-CD79 antibody LB517/521 (antibody, V domains shown, Full length IgG produced from 293 cells; also called LB517/LB521) VH: QVQLVQSGAEVKKPGASVKVSCKASGYAFSYSWMNWVRQAPGQGLEWMGRIYPENGDTNYNGKFKGRVTMTRDTSISTAYMELSRLRSDDTAVYYCARWVYGLPHFDYWGQGTLVTVSS VL: DVVMTQSPLSLPVTLGQPASISCKSSQSLLDSDGKTYLNWLQQRPGQSPRRLIYLVSKLDSGVPDRFSGSGSGTDFTLKISRVEAEDVGVYYCWQGTHVPFTFGGGTKVEIK	2.3	0.000201	87500
affinity matured anti-CD79 antibody LB517/518 (antibody, V domains shown, Full length IgG produced from 293 cells; also called LB517/LB518) VH: QVQLVQSGAEVKKPGASVKVSCKASGYAFSYSWMNWVRQAPGQGLEWMGRIYPENGDTNYNGKFKGRVTMTRDTSISTAYMELSRLRSDDTAVYYCARWVYGLPHFDYWGQGTLVTVSS VL: DVVMTQSPLSLPVTLGQPASISCKSSQSLLDSDGKTYLNWLQQRPGQSPRRLIYLVSKLDSGVPDRFSGSGSGTDFTLKISRVEAEDVGVYYCWQGTHIPFTFGGGTKVEIK	2.24	0.000199	88500
affinity matured anti-CD79 antibody LB495/519 (antibody, V domains shown, Full length IgG produced from 293 cells; also called LB495/LB519) VH: QVQLVQSGAEVKKPGASVKVSCKASGYAFSYSWMNWVRQAPGQGLEWMGRIYPENGDTNYNGKFKGRVTMTRDTSISTAYMELSRLRSDDTAVYYCARWVYGYPHFDYWGQGTLVTVSS VL: DVVMTQSPLSLPVTLGQPASISCKSSQSLLDSDGKTYLNWLQQRPGQSPRRLIYLVSKLDSGVPDRFSGSGSGTDFTLKISRVEAEDVGVYYCWQGTHLPFTFGGGTKVEIK	3.14	0.000252	80300
affinity matured anti-CD79 antibody LB517/520 (antibody, V domains shown, Full length IgG produced from 293 cells; also called LB517/LB520) VH: QVQLVQSGAEVKKPGASVKVSCKASGYAFSYSWMNWVRQAPGQGLEWMGRIYPENGDTNYNGKFKGRVTMTRDTSISTAYMELSRLRSDDTAVYYCARWVYGLPHFDYWGQGTLVTVSS VL: DVVMTQSPLSLPVTLGQPASISCKSSQSLLDSDGKTYLNWLQQRPGQSPRRLIYLVSKLDSGVPDRFSGSGSGTDFTLKISRVEAEDVGVYYCWQGTHRPFTFGGGTKVEIK	2.4	0.000234	97800
affinity matured anti-CD79 antibody LB517/PRI47 (antibody, V domains shown, Full length IgG produced from 293 cells) VH: QVQLVQSGAEVKKPGASVKVSCKASGYAFSYSWMNWVRQAPGQGLEWMGRIYPENGDTNYNGKFKGRVTMTRDTSISTAYMELSRLRSDDTAVYYCARWVYGLPHFDYWGQGTLVTVSS VL: DVVMTQSPLSLPVTLGQPASISCKSSQSLLDSDGKTYLNWLQQRPGQSPRRLIYLVSKLDSGVPDRFSGSGSGTDFTLKISRVEAEDVGVYYCWQGTHFPFTFGGGTKVEIK	3.55	0.000311	87500
affinity matured anti-CD79 antibody LB495/521 (antibody, V domains shown, Full length IgG produced from 293 cells; also called LB495/LB521) VH: QVQLVQSGAEVKKPGASVKVSCKASGYAFSYSWMNWVRQAPGQGLEWMGRIYPENGDTNYNGKFKGRVTMTRDTSISTAYMELSRLRSDDTAVYYCARWVYGYPHFDYWGQGTLVTVSS VL: DVVMTQSPLSLPVTLGQPASISCKSSQSLLDSDGKTYLNWLQQRPGQSPRRLIYLVSKLDSGVPDRFSGSGSGTDFTLKISRVEAEDVGVYYCWQGTHVPFTFGGGTKVEIK	3.65	0.000362	99100

— patent publication EP4796567A2 (Nepenthe Bioscience, LLC, dated 2026)
